Laboratory results as given in publication PMC2791020 (The Journal of Biological Chemistry, 2009).

Target: protein kinase A catalytic (C) subunit, wild type (UniProt P05132 2-351)
Assay: SPR

Kd: 2.9 nM
koff: 0.000316 s⁻¹
B1: RIIβAB, truncated PKA regulatory subunit RIIβ (domain or fragment)
chain: TRRASVCAEAYNPDEEEDDAESRIIHPKTDDQRNRLQEACKDILLFKNLDPEQMSQVLDAMFEKLVKEGEHVIDQGDDGDNFYVIDRGTFDIYVKCDGVGRCVGNYDNRGSFGELALMYNTPRAATITATSPGALWGLDRVTFRRIIVKNNAKKRKMYESFIESLPFLKSLEVSERLKVVDVIGTKVYNDGEQIIAQGDSADSFFIVESGEVRITMKRKGKSDIEENGAVEIARCLRGQYFGELALVTNKPRAASAHAIGTVKCLAMDVQAFERLLGPCMEIMKRNIATYEEQLV
